Literature values as cited in patent US20250341526A1, “NOVEL DYES” (Quantum-Si Incorporated, priority 2024, published 2025).
Positions count from the first letter of the chain named. In names and notes the source's numbering stands.

B1: PS368: ClpS amino acid recognition protein, SEQ ID NO: 1 (protein)
chain: MASAPSTTLDKSTQVVKKTYPNYKVIVLNDDLNTFDHVANCLIKYIPDMTTDRAWELTNQVHYQGQAIVWTGPQEQAELYHQQLRREGLTMAPLEAA
B2: Escherichia coli ClpS: ClpS amino acid recognition protein, SEQ ID NO: 108 (protein, listed as Escherichia coli)
chain: MGKTNDWLDFDQLAEEKVRDALKPPSMYKVILVNDDYTPMEFVIDVLQKFFSYDVERATQLMLAVHYQGKAICGVFTAEVAETKVAMVNKYARENEHPLLCTLEKA
B3: Escherichia coli ClpS M40A: ClpS amino acid recognition protein, SEQ ID NO: 109 (protein, listed as Escherichia coli)
chain: B2 chain with M40A
B4: atClpS1 C7S, C84S, C112S: ClpS amino acid recognition protein, SEQ ID NO: 104 (protein)
chain: MIAEPISMQGEGDGEDGGTNRGTSVITRVKPKTKRPNLYRVLLLNDDYTPMEFVIHILERFFQKDREAATRIMLHVHQHGVGESGVFTYEVAETKVSQVMDFARQHQHPLQSVMEKK
B5: PS390: ClpS amino acid recognition protein, SEQ ID NO: 18 (protein)
chain: MLSIAAVTEAPSKGVQTADPKTVRKPYPNYKVIVLNDDFNTFQHVSSCLLKYIPGMSEARAWELTNQVHFEGLAVVWVGPQEQAELYYAQLKNAGLTMAPPEPA
B6: PS393: ClpS amino acid recognition protein, SEQ ID NO: 21 (protein)
chain: MSDEDGEDGDENAVGIATRTRTRTKKPTPYRVLLLNDDYTPMEFVVLVLQRFFRMSIEDATRVMLQVHQKGVGVCGVFTYEVAETKVSQVIDFARQNQHPLQCTLEKA
B7: Synechococcus elongatus ClpS2: ClpS amino acid recognition protein, SEQ ID NO: 106 (protein, listed as Synechococcus elongatus)
chain: MSPQPDESVLSILGVPRPCVKKRSRNDAFVLTVLTCSLQAIAAPATAPGTTTTRVRQPYPHFRVIVLDDDVNTFQHVAECLLKYIPGMTGDRAWDLTNQVHYEGAATVWSGPQEQAELYHEQLRREGLTMAPLEAA
B8: PS395: ClpS amino acid recognition protein, SEQ ID NO: 23 (protein)
chain: MTVSQSKTQGAPAAQSATELEYEGLWRVVVLNDPVNLMSYVVLVFKKVFGFDETTARKHMLEVHEQGRSVVWSGMREKAEAYAFTLQQWHLTTVLEQDEVR
B9: PS394: ClpS amino acid recognition protein, SEQ ID NO: 22 (protein)
chain: MAERRDTGDDEGTGLGIATKTRSKTKKPTPYRVLMLNDDYTPMEFVVLCLQRFFRMNMEEATRVMLHVHQKGVGVCGVFSYEVAETKVGQVIDFARANQHPLQCTLEKA
B10: PS380: ClpS amino acid recognition protein, SEQ ID NO: 13 (protein)
chain: MGDIYGESNPEEVSCIDSLSEEGNELILFNDNIHTFEYVIDCLVAICSLSYEQASNCAYIVDRKGLCTVKHGSYDELLIMYHALVEKDLKVEIR
B11: PS388: ClpS amino acid recognition protein, SEQ ID NO: 16 (protein)
chain: MVTTLSADVYGMATAPTVAPERSNQVVRKTYPNYKVIVLNDDFNTFQHVAECLMKYIPGMSSDRAWDLTNQVHYEGQAIVWVGPQEPAELYHQQLRRAGLTMAPLEAA
B12: PS382: ClpS amino acid recognition protein, SEQ ID NO: 15 (protein)
chain: MSDSPVIKEIKKDNIKEADEHEKKEREKETSAWKVILYNDDIHNFTYVTDVIVKVVGQISKAKAHTITVEAHSTGQALILSTWKSKAEKYCQELQQNGLTVSIIHESQLKDKQKK
B13: Plasmodium falciparum ClpS: ClpS amino acid recognition protein, SEQ ID NO: 110 (protein, listed as Plasmodium falciparum)
chain: MFKDLKPFFLCIILLLLLIYKCTHSYNIKNKNCPLNFMNSCVRINNVNKNTNISFPKELQKRPSLVYSQKNFNLEKIKKLRNVIKEIKKDNIKEADEHEKKEREKETSAWKVILYNDDIHNFTYVTDVIVKVVGQISKAKAHTITVEAHSTGQALILSTWKSKAEKYCQELQQNGLTVSIIHESQLKDKQKK
B14: PS391: ClpS amino acid recognition protein, SEQ ID NO: 19 (protein)
chain: MGQTVEKPRVEGPGTGLGGSWRVIVRNDDHNTFDHVARTLARFIPGVSLERGHEIAKVIHTTGRAVVYTGHKEAAEHYWQQLKGAGLTMAPLEQG
B15: PS392: ClpS amino acid recognition protein, SEQ ID NO: 20 (protein)
chain: MSVEIIEKRSTVRKLAPRYRVLLHNDDFNPMEYVVQTLMATVPSLTQPQAVNVMMEAHTNGMGLVIVCALEHAEFYAETLNNHGLGSSIEPDD
B16: PS389: ClpS amino acid recognition protein, SEQ ID NO: 17 (protein)
chain: MLNSAAFKAASASPVIAPERSGQVTQKPYPTYKVIVLNDDFNTFQHVHDCLVKYIPGMTSDRAWQLTHQVHNDGQAIVWVGPQEQAELYHQQLSRAGLTMAPIEAA
B17: Synechococcus elongatus ClpS1: ClpS amino acid recognition protein, SEQ ID NO: 105 (protein, listed as Synechococcus elongatus)
chain: MAVETIQKPETTTKRKIAPRYRVLLHNDDFNPMEYVVMVLMQTVPSLTQPQAVDIMMEAHTNGTGLVITCDIEPAEFYCEQLKSHGLSSSIEPDD
B18: Thermosynechococcus elongatus ClpS: ClpS amino acid recognition protein, SEQ ID NO: 107 (protein, listed as Thermosynechococcus elongatus)
chain: MPQERQQVTRKHYPNYKVIVLNDDFNTFQHVAACLMKYIPNMTSDRAWELTNQVHYEGQAIVWVGPQEQAELYHEQLLRAGLTMAPLEPE
B19: PS504: amino acid recognition protein, SEQ ID NO: 132 (protein, listed as Galleria mellonella)
chain: MLCGKVFKQGEPAYSCRECGMDNTCVLCVECFKVSPHRHHKYKMGQSGGGGCCDCGDTEAWKRDPFCERHAK
B20: PS506: amino acid recognition protein, SEQ ID NO: 134 (protein, listed as Capitella teleta)
chain: MLCGKVFKMGELTYSCRDCGTDPTCVLCMDCFQHSAHKKHRYKMAASGGGGYCDCGDREAWKAEPFCDVHKR
B21: PS502: amino acid recognition protein, SEQ ID NO: 130 (protein, listed as Helobdella robusta)
chain: MVCLKVFKLGEPTYSCRSVTCGMDPTCVLCVDCFQNSSHKLHKYKMSTSGGGGYCDCGDLEAWKADPLCDLHKL
B22: PS501: amino acid recognition protein, SEQ ID NO: 129 (protein, listed as Amanita thiersii)
chain: MICGQIIGKGESCFRCRDCGLDESCVMCSQCFHATDHINHNVSFFVSQQPGGCCDCGDEEAWKKPMNCPYHPP
B23: PS505: amino acid recognition protein, SEQ ID NO: 133 (protein, listed as Brachionus plicatilis)
chain: MVCGRVFKSGEPSYFCRECGTDPTCVLCSICFRHSKHRYHKYVMMTSGGGGYCDCGDPEAWKSDPCCELHMP
B24: PS503: amino acid recognition protein, SEQ ID NO: 131 (protein, listed as Hydra vulgaris)
chain: MFCGRLFKVGDPTYTCKDCAADPTCVFCHDCFHQSVHTKHKYKLFASQGRGGYCDCGDKEAWTNDPACNKHKE
B25: PS507: amino acid recognition protein, SEQ ID NO: 135 (protein, listed as Sparassis crispa)
chain: MPCGHIFKKGESCFRCKDCALDDSCVLCSKCFEATDHANHNVSFFIAQQSGGCCDCGDIEAWLVPIDCPFHPV
B26: Saccharomyces cerevisiae GID10: amino acid recognition protein, SEQ ID NO: 125 (protein, listed as Saccharomyces cerevisiae)
chain: MTSLNIMGRKFILERAKRNDNIEEIYTSAYVSLPSSTDTRLPHFKAKEEDCDVYEEGTNLVGKNAKYTYRSLGRHLDFLRPGLRFGGSQSSKYTYYTVEVKIDTVNLPLYKDSRSLDPHVTGTFTIKNLTPVLDKVVTLFEGYVINYNQFPLCSLHWPAEETLDPYMAQRESDCSHWKRFGHFGSDNWSLTERNFGQYNHESAEFMNQRYIYLKWKERFLLDDEEQENQMLDDNHHLEGASFEGFYYVCLDQLTGSVEGYYYHPACELFQKLELVPTNCDALNTYSSGFEIA

Test system: amino acid at a terminal position of a polypeptide
Conditions: Table 1, ClpS proteins; amino acid at terminal position; inferred from literature and/or demonstrated by the inventors; cited from earlier work

Molecule | Binding Pref.
B1 | F, Y, W, L
B2 | F, W, Y, L
B3 | F, W, Y, L
B4 | F, W, Y, L
B5 | F, Y, L
B6 | F, Y, W, L
B7 | F, W, Y, L
B8 | F, Y, W, L
B9 | F, Y, W, L
B10 | F, W
B11 | F, Y, L
B12 | F, Y, W, L
B13 | F, W, Y, L
B14 | F, Y, W, L
B15 | F, Y, W
B16 | F, Y, L
B17 | F, W, Y
B18 | F, W, Y, L

Same assay, conditions: Table 2; amino acid at terminal position (phosphotyrosine also internal); inferred from literature and/or demonstrated by the inventors; cited from earlier work

Molecule | Binding Pref.
B19 | K, R, H
B20 | K, R, H
B21 | K, R, H
B22 | K, R, H
B23 | K, R, H
B24 | K, R, H
B25 | K, R, H
B26 | P, M, V
